Drawing on PMC10492824, this text covers stoichiometry N for one substance.

Test [1] deals with Zn-containing form of the soluble domain of the Rieske-type iron-sulfur protein PetA from Thermochromatium tepidum (Thermochromatium tepidum). Nature of the test: SEC-MALS; Superdex 200 Increase 10/300 GL, buffer A, 0.5 mL/min, 24 °C; about 100 µL of 7.3 mg/mL protein (first colorless SEC fraction) injected.
For test [2] the target is unchanged. Nature of the test: SEC; purification step after removal of the His-tag; HiLoad 16/60 Superdex 75 in buffer A (10 mM Tris-HCl pH 7.6, 150 mM NaCl); masses estimated with low molecular weight marker mixture.

For orientation: stoichiometry N means a count of units in the complex or per binding partner. For “Zn-containing form of the soluble domain of the Rieske-type iron-sulfur protein PetA from Thermochromatium tepidum (domain or fragment)”, the stoichiometry N in test [1] and in test [2] was 2 in each case.
